# Measured values taken from PMC3866087, “Heat Shock Transcription Factor σ^32 Co-opts the Signal Recognition Particle to Regulate Protein Homeostasis in E. coli” (PLoS Biology, 2013).
# B1: purified WTσ^32 (natural protein, E. coli, UniProt P0AGB3 1-284, looked up)
# chain: MTDKMQSLALAPVGNLDSYIRAANAWPMLSADEERALAEKLHYHGDLEAAKTLILSHLRFVVHIARNYAGYGLPQADLIQEGNIGLMKAVRRFNPEVGVRLVSFAVHWIKAEIHEYVLRNWRIVKVATTKAQRKLFFNLRKTKQRLGWFNQDEVEMVARELGVTSKDVREMESRMAAQDMTFDLSSDDDSDSQPMAPVLYLQDKSSNFADGIEDDNWEEQAANRLTDAMQGLDERSQDIIRARWLDEDNKSTLQELADRYGVSAERVRQLEKNAMKKLRAAIEA
# notes: RNA polymerase sigma factor σ^32 (RpoH) of E. coli, wild type, purified; called full-length in the discussion; The methods list 6×H-tagged, Strep-6×H-tagged and untagged σ^32; also called full-length σ^32; source: purified essentially as described [80]; chaperones removed with a wash of ATP, MgCl2 and two peptides
# Molecular target: T1, purified SecA (E. coli, UniProt P10408 1-901)
# T1 construct: SecA, ATP-fueled motor protein of the Sec translocon of E. coli, purified; source: purified essentially as described [82]
# Experiment: far-Western, overlay or dot blot; purified FtsY, Ffh, SecA or Ffh partially digested by Glu-C (V8) resolved on 10% SDS-PAGE, transferred to nitrocellulose, re-natured, incubated with purified WTσ^32, probed with polyclonal anti-σ^32
# Conditions: both partners purified
# T1 sequence (P10408 whole entry): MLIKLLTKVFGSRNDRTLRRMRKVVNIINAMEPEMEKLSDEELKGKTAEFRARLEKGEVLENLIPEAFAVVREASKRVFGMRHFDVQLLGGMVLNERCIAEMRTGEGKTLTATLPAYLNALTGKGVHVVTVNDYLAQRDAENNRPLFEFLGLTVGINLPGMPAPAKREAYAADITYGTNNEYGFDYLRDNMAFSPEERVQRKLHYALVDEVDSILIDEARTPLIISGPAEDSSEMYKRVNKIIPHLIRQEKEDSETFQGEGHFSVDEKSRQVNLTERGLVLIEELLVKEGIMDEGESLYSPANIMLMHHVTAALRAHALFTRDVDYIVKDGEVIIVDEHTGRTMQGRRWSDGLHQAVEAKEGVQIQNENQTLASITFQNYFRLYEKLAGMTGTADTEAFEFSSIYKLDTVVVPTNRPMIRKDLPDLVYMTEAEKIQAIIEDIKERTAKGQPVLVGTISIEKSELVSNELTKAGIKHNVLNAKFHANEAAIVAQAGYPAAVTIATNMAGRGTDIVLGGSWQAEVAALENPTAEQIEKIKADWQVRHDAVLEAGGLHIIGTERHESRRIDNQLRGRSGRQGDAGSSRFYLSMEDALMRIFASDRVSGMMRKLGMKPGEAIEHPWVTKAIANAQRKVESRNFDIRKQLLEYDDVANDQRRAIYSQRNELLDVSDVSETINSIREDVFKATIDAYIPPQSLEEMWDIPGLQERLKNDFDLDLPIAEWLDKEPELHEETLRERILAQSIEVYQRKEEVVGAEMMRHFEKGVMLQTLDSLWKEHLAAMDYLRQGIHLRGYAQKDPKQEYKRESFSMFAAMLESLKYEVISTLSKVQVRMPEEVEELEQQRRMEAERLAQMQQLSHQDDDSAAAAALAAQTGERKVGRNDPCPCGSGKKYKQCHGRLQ
binder,measurement,value
B1,binding result,binds
